This series deals with adipose tissue. The series is classed as in vivo, human. The text has this: Thus, by adjusting the single dose of hyaluronidase in the injection composition for topical fat removal of the present invention to 300 IU to 600 IU, the side effects from using the drug are minimized and yet fat removal over a wide area can be carried out using a minimal volume. It has been shown in clinical trials that at a hyaluronidase activity of 300 IU and an injection volume of 1 cc, the diameter of the diffusion range for the injection composition is about 1 cm. Thus, by injecting the composition at narrow intervals between injection points of 0.5 to 2 cm, even fat removal as well as collagen production by skin stimulation can be facilitated.

Turning to hyaluronidase, where the note is “human, in vivo, sc”, the “amount at which adipose cells are excessively hydrolyzed, causing concerns about dimpling or subcutaneous bleeding” value is reported as “above 600 IU”. The “minimum amount of hyaluronidase exhibiting efficacy” value (single dose) was 300 IU.

The record behind these values is patent publication US20180207087A1, “KIT AND AESTHETIC SYSTEM FOR PREVENTION OF SKIN AGING” (priority 2017, published 2018).
